The target in the test is Human PSMA on prostate cancer cell lines (C4-2B, 22RV1) (human, UniProt Q04609 1-750). As to the kind of experiment: cell-based or functional assay.
Human PSMA on prostate cancer cell lines (C4-2B, 22RV1), sequence (Q04609 whole entry): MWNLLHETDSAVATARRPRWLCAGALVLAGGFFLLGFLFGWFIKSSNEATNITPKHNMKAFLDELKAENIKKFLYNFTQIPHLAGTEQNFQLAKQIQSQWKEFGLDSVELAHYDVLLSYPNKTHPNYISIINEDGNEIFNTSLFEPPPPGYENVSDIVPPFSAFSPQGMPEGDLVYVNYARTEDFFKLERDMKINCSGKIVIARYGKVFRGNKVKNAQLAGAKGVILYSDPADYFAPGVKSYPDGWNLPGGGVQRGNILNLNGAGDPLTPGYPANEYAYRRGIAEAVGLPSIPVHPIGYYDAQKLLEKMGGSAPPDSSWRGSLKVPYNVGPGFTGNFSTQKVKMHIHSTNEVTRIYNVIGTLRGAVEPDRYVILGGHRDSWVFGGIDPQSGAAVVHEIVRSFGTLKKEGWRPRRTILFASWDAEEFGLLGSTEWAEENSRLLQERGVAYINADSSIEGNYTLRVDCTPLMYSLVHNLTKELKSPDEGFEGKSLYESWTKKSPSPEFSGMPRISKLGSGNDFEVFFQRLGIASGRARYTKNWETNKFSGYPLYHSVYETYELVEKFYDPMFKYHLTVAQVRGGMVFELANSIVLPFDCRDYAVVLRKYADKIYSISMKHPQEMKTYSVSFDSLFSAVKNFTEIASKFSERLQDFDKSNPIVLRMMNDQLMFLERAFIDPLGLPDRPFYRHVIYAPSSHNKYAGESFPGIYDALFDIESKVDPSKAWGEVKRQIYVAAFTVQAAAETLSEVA

B1: PS3B1354 (bispecific antibody, human IgG1, lambda, L234A L235A)
heavy 1: QVQLQQSGPRLVRPSQTLSLTCAISGDSVFNNNAAWSWIRQSPSRGLEWLGRTYYRSKWLYDYAVSVKSRITVNPDTSRNQFTLQLNSVTPEDTALYYCARGYSSSFDYWGQGTLVTVSSASTKGPSVFPLAPSSKSTSGGTAALGCLVKDYFPEPVTVSWNSGALTSGVHTFPAVLQSSGLYSLSSVVTVPSSSLGTQTYICNVNHKPSNTKVDKKVEPKSCDKTHTCPPCPAPEAAGGPSVFLFPPKPKDTLMISRTPEVTCVVVSVSHEDPEVKFNWYVDGVEVHNAKTKPREEQYNSTYRVVSVLTVLHQDWLNGKEYKCKVSNKALPAPIEKTISKAKGQPREPQVYTLPPSREEMTKNQVSLTCLVKGFYPSDIAVEWESNGQPENNYKTTPPVLDSDGSFLLYSKLTVDKSRWQQGNVFSCSVMHEALHNHYTQKSLSLSPGK
light 1: QSALTQPASVSGSPGQSITISCTGTSSNIGTYKFVSWYQQHPDKAPKVLLYEVSKRPSGVSSRFSGSKSGNTASLTISGLQAEDQADYHCVSYAGSGTLLFGGGTKLTVLGQPKAAPSVTLFPPSSEELQANKATLVCLISDFYPGAVTVAWKADSSPVKAGVETTTPSKQSNNKYAASSYLSLTPEQWKSHRSYSCQVTHEGSTVEKTVAPTECS
heavy 2: EVQLVESGGGLVQPGGSLRLSCAASGFTFSSYAMSWVRQAPGKGLEWVSAISGGSGSTYYADSVKGRFTISRDNSKNTLYLQMNSLRAEDSAVYYCAKDGVGATPYYFDYWGQGTLVTVSSASTKGPSVFPLAPSSKSTSGGTAALGCLVKDYFPEPVTVSWNSGALTSGVHTFPAVLQSSGLYSLSSVVTVPSSSLGTQTYICNVNHKPSNTKVDKKVEPKSCDKTHTCPPCPAPEAAGGPSVFLFPPKPKDTLMISRTPEVTCVVVSVSHEDPEVKFNWYVDGVEVHNAKTKPREEQYNSTYRVVSVLTVLHQDWLNGKEYKCKVSNKALPAPIEKTISKAKGQPREPQVYTLPPSREEMTKNQVSLTCLVKGFYPSDIAVEWESNGQPENNYKTTPPVLDSDGSFFLYSRLTVDKSRWQQGNVFSCSVMHEALHNHYTQKSLSLSPGK
light 2: QSVLTQPPSVSAAPGQKVTISCSGSSSNIGNNYVSWYQQLPGTAPKLLIYDNNKRPSGIPDRFSGSKSGTSATLGITGLQTGDEADYYCGTWDSSLSAYVFGTGTKVTVLGQPKAAPSVTLFPPSSEELQANKATLVCLISDFYPGAVTVAWKADSSPVKAGVETTTPSKQSNNKYAASSYLSLTPEQWKSHRSYSCQVTHEGSTVEKTVAPTECS
Turning to B1, the “Cytotoxicity (C4-2B cells, 3:1 E:T ratio, 5 Day) at 3.3 nM” value worked out at 30%; the “Cytotoxicity (C4-2B cells, 3:1 E:T ratio, 5 Day) at 10 nM” value is 72%; the “Cytotoxicity (C4-2B cells, 3:1 E:T ratio, 5 Day) at 30 nM” value came out at 84%.

B2: PS3B1358 (bispecific antibody, human IgG1, lambda, L234A L235A)
heavy 1: QVQLQQSGPGLVKPSQTLSLTCAISGDSVFNNNAAWSWIRQSPSRGLEWLGRTYYRSKWLYDYAVSVKSRITINPDTSKNQFSLQLNSVTPEDTAVYYCARGYSSSFDYWGQGTLVTVSSASTKGPSVFPLAPSSKSTSGGTAALGCLVKDYFPEPVTVSWNSGALTSGVHTFPAVLQSSGLYSLSSVVTVPSSSLGTQTYICNVNHKPSNTKVDKKVEPKSCDKTHTCPPCPAPEAAGGPSVFLFPPKPKDTLMISRTPEVTCVVVSVSHEDPEVKFNWYVDGVEVHNAKTKPREEQYNSTYRVVSVLTVLHQDWLNGKEYKCKVSNKALPAPIEKTISKAKGQPREPQVYTLPPSREEMTKNQVSLTCLVKGFYPSDIAVEWESNGQPENNYKTTPPVLDSDGSFLLYSKLTVDKSRWQQGNVFSCSVMHEALHNHYTQKSLSLSPGK
light 1: QSALTQPASVSGSPGQSITISCTGTSSNIGTYKFVSWYQQHPGKAPKVMIYEVSKRPSGVSNRFSGSKSGNTASLTISGLQAEDEADYYCVSYAGSGTLLFGGGTKLTVLGQPKAAPSVTLFPPSSEELQANKATLVCLISDFYPGAVTVAWKADSSPVKAGVETTTPSKQSNNKYAASSYLSLTPEQWKSHRSYSCQVTHEGSTVEKTVAPTECS
heavy 2: EVQLVESGGGLVQPGGSLRLSCAASGFTFSSYAMSWVRQAPGKGLEWVSAISGGSGSTYYADSVKGRFTISRDNSKNTLYLQMNSLRAEDSAVYYCAKDGVGATPYYFDYWGQGTLVTVSSASTKGPSVFPLAPSSKSTSGGTAALGCLVKDYFPEPVTVSWNSGALTSGVHTFPAVLQSSGLYSLSSVVTVPSSSLGTQTYICNVNHKPSNTKVDKKVEPKSCDKTHTCPPCPAPEAAGGPSVFLFPPKPKDTLMISRTPEVTCVVVSVSHEDPEVKFNWYVDGVEVHNAKTKPREEQYNSTYRVVSVLTVLHQDWLNGKEYKCKVSNKALPAPIEKTISKAKGQPREPQVYTLPPSREEMTKNQVSLTCLVKGFYPSDIAVEWESNGQPENNYKTTPPVLDSDGSFFLYSRLTVDKSRWQQGNVFSCSVMHEALHNHYTQKSLSLSPGK
light 2: QSVLTQPPSVSAAPGQKVTISCSGSSSNIGINYVSWYQQLPGTAPKLLIYDNNKRPSGIPDRFSGSKSGTSATLGITGLQTGDEADYYCGTWDSSLSAVVFGGGTKLTVLGQPKAAPSVTLFPPSSEELQANKATLVCLISDFYPGAVTVAWKADSSPVKAGVETTTPSKQSNNKYAASSYLSLTPEQWKSHRSYSCQVTHEGSTVEKTVAPTECS
With B2, the “Cytotoxicity (C4-2B cells, 3:1 E:T ratio, 5 Day) at 0.3 nM” value is 68%; the “Cytotoxicity (C4-2B cells, 3:1 E:T ratio, 5 Day) at 1.1 nM” value was 90%; the “Cytotoxicity (C4-2B cells, 3:1 E:T ratio, 5 Day) at 3.3 nM” value was 93%; the “Cytotoxicity (C4-2B cells, 3:1 E:T ratio, 5 Day) at 10 nM” value was determined as 94%. Also, the “Cytotoxicity (C4-2B cells, 3:1 E:T ratio, 5 Day) at 30 nM” value is 88%.

B3: PS3B1355 (bispecific antibody, human IgG1, lambda, L234A L235A)
heavy 1: QVQLQQSGPRLVRPSQTLSLTCAISGDSVFNNNAAWSWIRQSPSRGLEWLGRTYYRSKWLYDYAVSVKSRITVNPDTSRNQFTLQLNSVTPEDTALYYCARGYSSSFDYWGQGTLVTVSSASTKGPSVFPLAPSSKSTSGGTAALGCLVKDYFPEPVTVSWNSGALTSGVHTFPAVLQSSGLYSLSSVVTVPSSSLGTQTYICNVNHKPSNTKVDKKVEPKSCDKTHTCPPCPAPEAAGGPSVFLFPPKPKDTLMISRTPEVTCVVVSVSHEDPEVKFNWYVDGVEVHNAKTKPREEQYNSTYRVVSVLTVLHQDWLNGKEYKCKVSNKALPAPIEKTISKAKGQPREPQVYTLPPSREEMTKNQVSLTCLVKGFYPSDIAVEWESNGQPENNYKTTPPVLDSDGSFLLYSKLTVDKSRWQQGNVFSCSVMHEALHNHYTQKSLSLSPGK
light 1: QSALTQPASVSGSPGQSITISCTGTSSNIGTYKFVSWYQQHPDKAPKVLLYEVSKRPSGVSSRFSGSKSGNTASLTISGLQAEDQADYHCVSYAGSGTLLFGGGTKLTVLGQPKAAPSVTLFPPSSEELQANKATLVCLISDFYPGAVTVAWKADSSPVKAGVETTTPSKQSNNKYAASSYLSLTPEQWKSHRSYSCQVTHEGSTVEKTVAPTECS
heavy 2: EVQLVESGGGLVQPGGSLRLSCAASGFTFSSYAMSWVRQAPGKGLEWVSAISGGSGSTYYADSVKGRFTISRDNSKNTLYLQMNSLRAEDSAVYYCAKDGVGATPYYFDYWGQGTLVTVSSASTKGPSVFPLAPSSKSTSGGTAALGCLVKDYFPEPVTVSWNSGALTSGVHTFPAVLQSSGLYSLSSVVTVPSSSLGTQTYICNVNHKPSNTKVDKKVEPKSCDKTHTCPPCPAPEAAGGPSVFLFPPKPKDTLMISRTPEVTCVVVSVSHEDPEVKFNWYVDGVEVHNAKTKPREEQYNSTYRVVSVLTVLHQDWLNGKEYKCKVSNKALPAPIEKTISKAKGQPREPQVYTLPPSREEMTKNQVSLTCLVKGFYPSDIAVEWESNGQPENNYKTTPPVLDSDGSFFLYSRLTVDKSRWQQGNVFSCSVMHEALHNHYTQKSLSLSPGK
light 2: QSVLTQPPSVSAAPGQKVTISCSGSSSNIGINYVSWYQQLPGTAPKLLIYDNNKRPSGIPDRFSGSKSGTSATLGITGLQTGDEADYYCGTWDSSLSAVVFGGGTKLTVLGQPKAAPSVTLFPPSSEELQANKATLVCLISDFYPGAVTVAWKADSSPVKAGVETTTPSKQSNNKYAASSYLSLTPEQWKSHRSYSCQVTHEGSTVEKTVAPTECS
Turning to B3, the “Cytotoxicity (C4-2B cells, 3:1 E:T ratio, 5 Day) at 0.3 nM” value was determined as 92%; the “Cytotoxicity (C4-2B cells, 3:1 E:T ratio, 5 Day) at 1.1 nM” value is 97%; the “Cytotoxicity (C4-2B cells, 3:1 E:T ratio, 5 Day) at 3.3 nM” value is 96%; the “Cytotoxicity (C4-2B cells, 3:1 E:T ratio, 5 Day) at 10 nM” value was 95%. The “Cytotoxicity (C4-2B cells, 3:1 E:T ratio, 5 Day) at 30 nM” value came out at 94%.

B4: PSMB937 (bispecific antibody, human IgG1, lambda, L234A L235A)
heavy 1: QVQLQQSGPGLVKPSQTLSLTCAISGDSVFNNNAAWSWIRQSPSRGLEWLGRTYYRSKWLYDYAVSVKSRITINPDTSKNQFSLQLNSVTPEDTAVYYCARGYSSSFDYWGQGTLVTVSSASTKGPSVFPLAPSSKSTSGGTAALGCLVKDYFPEPVTVSWNSGALTSGVHTFPAVLQSSGLYSLSSVVTVPSSSLGTQTYICNVNHKPSNTKVDKKVEPKSCDKTHTCPPCPAPEAAGGPSVFLFPPKPKDTLMISRTPEVTCVVVSVSHEDPEVKFNWYVDGVEVHNAKTKPREEQYNSTYRVVSVLTVLHQDWLNGKEYKCKVSNKALPAPIEKTISKAKGQPREPQVYTLPPSREEMTKNQVSLTCLVKGFYPSDIAVEWESNGQPENNYKTTPPVLDSDGSFLLYSKLTVDKSRWQQGNVFSCSVMHEALHNHYTQKSLSLSPG
light 1: QSALTQPASVSGSPGQSITISCTGTSSNIGTYKFVSWYQQHPGKAPKVMIYEVSKRPSGVSNRFSGSKSGNTASLTISGLQAEDEADYYCVSYAGSGTLLFGGGTKLTVLGQPKAAPSVTLFPPSSEELQANKATLVCLISDFYPGAVTVAWKADSSPVKAGVETTTPSKQSNNKYAASSYLSLTPEQWKSHRSYSCQVTHEGSTVEKTVAPTECS
heavy 2: EVQLVESGGGLVQPGGSLRLSCAASGFTFSSYAMSWVRQAPGKGLEWVSAISGGSGSTYYADSVKGRFTISRDNSKNTLYLQMNSLRAEDSAVYYCAKDGVGATPYYFDYWGQGTLVTVSSASTKGPSVFPLAPSSKSTSGGTAALGCLVKDYFPEPVTVSWNSGALTSGVHTFPAVLQSSGLYSLSSVVTVPSSSLGTQTYICNVNHKPSNTKVDKKVEPKSCDKTHTCPPCPAPEAAGGPSVFLFPPKPKDTLMISRTPEVTCVVVSVSHEDPEVKFNWYVDGVEVHNAKTKPREEQYNSTYRVVSVLTVLHQDWLNGKEYKCKVSNKALPAPIEKTISKAKGQPREPQVYTLPPSREEMTKNQVSLTCLVKGFYPSDIAVEWESNGQPENNYKTTPPVLDSDGSFFLYSRLTVDKSRWQQGNVFSCSVMHEALHNHYTQKSLSLSPG
light 2: QSVLTQPPSVSAAPGQKVTISCSGSSSNIGNNYVSWYQQLPGTAPKLLIYDNNKRPSGIPDRFSGSKSGTSATLGITGLQTGDEADYYCGTWDSSLSAYVFGTGTKVTVLGQPKAAPSVTLFPPSSEELQANKATLVCLISDFYPGAVTVAWKADSSPVKAGVETTTPSKQSNNKYAASSYLSLTPEQWKSHRSYSCQVTHEGSTVEKTVAPTECS
Turning to B4, the “Cytotoxicity (C4-2B cells, 3:1 E:T ratio, 5 Day) at 30 nM” value was found to be 41%.

(Values after patent publication US20240059789A1 (Janssen / Centocor, published 2024).)
